Laboratory results taken from the supplement of paper PMC10126150.
± gives the standard deviation of the averaged measurements.

Test system: ATP
Experiment: switch fluorescence ratio, 500 uM ATP over buffer (Cy3 cluster intensity, sum of 5 cycles each) (fold (ratio)); higher = stronger signal-on switching upon ATP binding; sequences stand for … in TCGTCGGCAGCGTCAGATGTGTATAAGAGACAGTTTTTTTTTTTTTTTTTTTTTTTTT…TC
Conditions: aptamer strand: ATP DNA aptamer (quencher-CACCTGGGGGAGTATTGCGGAGGAAGG + anchor), 100 nM annealed; ATP concentration: 500 uM
Procedure, shortened: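 Imaging in selection buffer was followed by imaging after 15 min with 500 uM ATP at 22 °C, for Cy3-labelled switching-strand clusters annealed to 100 nM quencher-labelled ATP aptamer on a modified Illumina MiSeq flow-cell. Five of these buffer/ATP cycles ran, separated by NaOH stripping and re-annealing. The fluorescence ratio per cluster is summed target-cycle over summed buffer-cycle Cy3 intensity, averaged per switch-domain sequence; clusters outside 100-1000 RFU were removed.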
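Note: ATP exposure 15 min at 22 °C before imaging.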

TAGGGCTGGC
switch fluorescence ratio: 1 ± 0.08

TAGGGCTGTA
switch fluorescence ratio: 0.993 ± 0.049

TAGGGGAATC
switch fluorescence ratio: 0.992 ± 0.02

TAGGGGAATG
switch fluorescence ratio: 1.02 ± 0.098

TAGGGGAATT
switch fluorescence ratio: 0.967 ± 0.039

TAGGGGAGC
switch fluorescence ratio: 1.01 ± 0.045

TAGGGGAGCA
switch fluorescence ratio: 1.01 ± 0.044

TAGGGGATAT
switch fluorescence ratio: 0.964 ± 0.025

TAGGGGCAGG
switch fluorescence ratio: 1.07 ± 0.022

TAGGGGCCGT
switch fluorescence ratio: 1.02 ± 0.05

TAGGGGCCTA
switch fluorescence ratio: 0.995 ± 0.011

TAGGGGCGTG
switch fluorescence ratio: 0.998 ± 0.039

TAGGGGGAAT
switch fluorescence ratio: 1.01 ± 0.054

TAGGGGGATG
switch fluorescence ratio: 0.997 ± 0.028

TAGGGGGCAT
switch fluorescence ratio: 1.01 ± 0.043

TAGGGGGCGG
switch fluorescence ratio: 0.988 ± 0.03

TAGGGGGCTC
switch fluorescence ratio: 0.959 ± 0.02

TAGGGGGGAA
switch fluorescence ratio: 1 ± 0.023

TAGGGGGGCC
switch fluorescence ratio: 0.9669 ± 0.0015

TAGGGGGGGA
switch fluorescence ratio: 1.01 ± 0.018

TAGGGGGGGT
switch fluorescence ratio: 1 ± 0.031

TAGGGGGT
switch fluorescence ratio: 0.985 ± 0.027

TAGGGGGTAA
switch fluorescence ratio: 0.997 ± 0.039

TAGGGGGTCG
switch fluorescence ratio: 0.971 ± 0.042

TAGGGGGTTC
switch fluorescence ratio: 1.01 ± 0.027

TAGGGGTAGG
switch fluorescence ratio: 1.02 ± 0.021

TAGGGGTTAG
switch fluorescence ratio: 0.9808 ± 0.0098

TAGGGGTTCT
switch fluorescence ratio: 1.01 ± 0.061

TAGGGGTTGG
switch fluorescence ratio: 0.987 ± 0.03

TAGGGGTTTG
switch fluorescence ratio: 0.979 ± 0.027

TAGGGTAAAT
switch fluorescence ratio: 0.985 ± 0.012

TAGGGTAGTT
switch fluorescence ratio: 1.02 ± 0.071

TAGGGTCATT
switch fluorescence ratio: 0.999 ± 0.029

TAGGGTCTCT
switch fluorescence ratio: 0.989 ± 0.012

TAGGGTGCTA
switch fluorescence ratio: 1 ± 0.019

TAGGGTGTCA
switch fluorescence ratio: 1.03 ± 0.047

TAGGTAAATT
switch fluorescence ratio: 1.02 ± 0.054

TAGGTACTGG
switch fluorescence ratio: 1.04 ± 0.014

TAGGTAGGTT
switch fluorescence ratio: 1.015 ± 0.0086

TAGGTAGTCT
switch fluorescence ratio: 1.02 ± 0.015

TAGGTATGGC
switch fluorescence ratio: 0.976 ± 0.012

TAGGTATGGG
switch fluorescence ratio: 0.9955 ± 0.002

TAGGTCCCGG
switch fluorescence ratio: 0.996 ± 0.032

TAGGTCGGCC
switch fluorescence ratio: 1.004 ± 0.0061

TAGGTCGGGT
switch fluorescence ratio: 0.984 ± 0.035

TAGGTCTAGT
switch fluorescence ratio: 0.98706 ± 0.0005

TAGGTGCAGG
switch fluorescence ratio: 1.08 ± 0.068

TAGGTGGACT
switch fluorescence ratio: 1.01 ± 0.042

TAGGTGGGCA
switch fluorescence ratio: 0.987 ± 0.054

TAGGTGGGCT
switch fluorescence ratio: 1.011 ± 0.0064

TAGGTTCTAA
switch fluorescence ratio: 1.06 ± 0.079

TAGGTTGCAA
switch fluorescence ratio: 0.9665 ± 0.007

TAGGTTGGTG
switch fluorescence ratio: 1 ± 0.036

TAGGTTTGCC
switch fluorescence ratio: 1.08 ± 0.021

TAGGTTTTGT
switch fluorescence ratio: 1 ± 0.044

TAGTAATTTG
switch fluorescence ratio: 1.01 ± 0.019

TAGTAGAGGT
switch fluorescence ratio: 1 ± 0.043

TAGTAGGGGT
switch fluorescence ratio: 1.002 ± 0.0061

TAGTAGGTAG
switch fluorescence ratio: 0.985 ± 0.025

TAGTAGGTTG
switch fluorescence ratio: 0.979 ± 0.04

TAGTATGGGG
switch fluorescence ratio: 0.976 ± 0.045

TAGTATGTTT
switch fluorescence ratio: 1.004 ± 0.0061

TAGTATTTTT
switch fluorescence ratio: 0.977 ± 0.023

TAGTCTAGTG
switch fluorescence ratio: 0.9812 ± 0.0066

TAGTCTTAGG
switch fluorescence ratio: 0.973 ± 0.049

TAGTGAAGGC
switch fluorescence ratio: 0.988 ± 0.013

TAGTGAAGTC
switch fluorescence ratio: 1.02 ± 0.073

TAGTGATCTT
switch fluorescence ratio: 0.997 ± 0.0066

TAGTGCACGG
switch fluorescence ratio: 0.995 ± 0.039

TAGTGGCAGC
switch fluorescence ratio: 0.9797 ± 0.0053

TAGTGGCTGG
switch fluorescence ratio: 1 ± 0.026

TAGTGGGATT
switch fluorescence ratio: 0.994 ± 0.016

TAGTGGTGGG
switch fluorescence ratio: 0.9844 ± 0.0089

TAGTGTATTG
switch fluorescence ratio: 1.01 ± 0.012

TAGTTAAATC
switch fluorescence ratio: 1 ± 0.042

TAGTTAATCA
switch fluorescence ratio: 0.991 ± 0.01

TAGTTAATTG
switch fluorescence ratio: 0.987 ± 0.067

TAGTTACGGT
switch fluorescence ratio: 1.05 ± 0.064

TAGTTACTTT
switch fluorescence ratio: 1.02 ± 0.021

TAGTTAGACG
switch fluorescence ratio: 1.11 ± 0.1

TAGTTATCGA
switch fluorescence ratio: 0.997 ± 0.0069

TAGTTCGGTT
switch fluorescence ratio: 1.01 ± 0.016

TAGTTCTGGG
switch fluorescence ratio: 0.9428 ± 0.0012

TAGTTGAAGG
switch fluorescence ratio: 0.9942 ± 0.0051

TAGTTGACAA
switch fluorescence ratio: 0.99 ± 0.0024

TAGTTGACCC
switch fluorescence ratio: 1.01 ± 0.053

TAGTTGCTCA
switch fluorescence ratio: 0.993 ± 0.046

TAGTTGGGAT
switch fluorescence ratio: 0.991 ± 0.029

TAGTTGGGCA
switch fluorescence ratio: 0.987 ± 0.026

TAGTTGTCCG
switch fluorescence ratio: 1.02 ± 0.12

TAGTTGTGGT
switch fluorescence ratio: 0.99 ± 0.034

TAGTTGTTTA
switch fluorescence ratio: 0.985 ± 0.046

TAGTTTTCAG
switch fluorescence ratio: 1.02 ± 0.047

TAGTTTTGAA
switch fluorescence ratio: 0.997 ± 0.072

TAGTTTTGGA
switch fluorescence ratio: 0.988 ± 0.01

TAGTTTTTAG
switch fluorescence ratio: 0.981 ± 0.018

TAGTTTTTCC
switch fluorescence ratio: 1.03 ± 0.037

TATAAAGAGG
switch fluorescence ratio: 0.987 ± 0.038

TATAAAGGGT
switch fluorescence ratio: 1.02 ± 0.055

TATAAAGTTT
switch fluorescence ratio: 1.01 ± 0.0081

TATAAATGGG
switch fluorescence ratio: 1 ± 0.0042

TATAACATGT
switch fluorescence ratio: 0.997 ± 0.026

TATAACGCTT
switch fluorescence ratio: 1.01 ± 0.017

TATAACTTGA
switch fluorescence ratio: 1.02 ± 0.0048

TATAAGAGCG
switch fluorescence ratio: 1.004 ± 0.0065

TATAAGGATG
switch fluorescence ratio: 0.993 ± 0.019

TATAAGTCAC
switch fluorescence ratio: 1.146 ± 0.011

TATAATAGTT
switch fluorescence ratio: 0.965 ± 0.037

TATAATCGA
switch fluorescence ratio: 1.03 ± 0.067

TATAATGCGC
switch fluorescence ratio: 0.995 ± 0.034

TATAATGGCG
switch fluorescence ratio: 0.961 ± 0.04

TATAATTGCC
switch fluorescence ratio: 0.991 ± 0.0076

TATAATTTCT
switch fluorescence ratio: 1.04 ± 0.018

TATACATCTG
switch fluorescence ratio: 1.0055 ± 0.00054

TATACGAAGA
switch fluorescence ratio: 1.08 ± 0.045

TATACGGGAT
switch fluorescence ratio: 1.06 ± 0.043

TATACGGGGA
switch fluorescence ratio: 1.01 ± 0.021

TATACGGTTA
switch fluorescence ratio: 1.06 ± 0.022

TATACTAGTT
switch fluorescence ratio: 1.04 ± 0.033

TATACTCCTG
switch fluorescence ratio: 1.16 ± 0.041

TATACTTAGT
switch fluorescence ratio: 1.025 ± 0.0036

TATAGAAAAT
switch fluorescence ratio: 1.03 ± 0.026

TATAGAAGCG
switch fluorescence ratio: 1.01 ± 0.021

TATAGAAGT
switch fluorescence ratio: 1.002 ± 0.0015

TATAGAGTAA
switch fluorescence ratio: 1.02 ± 0.034

TATAGAGTTT
switch fluorescence ratio: 1.01 ± 0.023

TATAGCCTAG
switch fluorescence ratio: 0.99 ± 0.027

TATAGGATGG
switch fluorescence ratio: 0.98 ± 0.028

TATAGGCAGG
switch fluorescence ratio: 0.9772 ± 0.008

TATAGGCCTC
switch fluorescence ratio: 1.001 ± 0.0064

TATAGGGTTT
switch fluorescence ratio: 1.07 ± 0.12

TATAGGTTGG
switch fluorescence ratio: 1.02 ± 0.031

TATAGTCTTT
switch fluorescence ratio: 0.983 ± 0.015

TATATAGGGG
switch fluorescence ratio: 1 ± 0.026

TATATATGAA
switch fluorescence ratio: 1.01 ± 0.015

TATATCTATA
switch fluorescence ratio: 1.02 ± 0.015

TATATGCCTT
switch fluorescence ratio: 1.01 ± 0.036

TATATGCGTG
switch fluorescence ratio: 0.9932 ± 0.0039

TATATTACAG
switch fluorescence ratio: 1.05 ± 0.028

TATATTATGA
switch fluorescence ratio: 0.999 ± 0.023

TATATTTTTC
switch fluorescence ratio: 1.15 ± 0.24

TATCAAAGGG
switch fluorescence ratio: 1.023 ± 0.0067

TATCAAAGGT
switch fluorescence ratio: 1.01 ± 0.025

TATCACACTG
switch fluorescence ratio: 1.09 ± 0.12

TATCACGGCG
switch fluorescence ratio: 0.998 ± 0.013

TATCACGGCT
switch fluorescence ratio: 0.969 ± 0.0099

TATCACTGTT
switch fluorescence ratio: 1.05 ± 0.079

TATCAGAAGC
switch fluorescence ratio: 1.012 ± 0.01

TATCAGAGGT
switch fluorescence ratio: 1.03 ± 0.036

TATCAGATTA
switch fluorescence ratio: 0.998 ± 0.033

TATCAGCTGA
switch fluorescence ratio: 0.9974 ± 0.0036

TATCAGGGG
switch fluorescence ratio: 1.11 ± 0.054

TATCAGTAGT
switch fluorescence ratio: 1.016 ± 0.0028

TATCAGTGAT
switch fluorescence ratio: 1.02 ± 0.071

TATCATAGCG
switch fluorescence ratio: 1.01 ± 0.046

TATCATGGGG
switch fluorescence ratio: 0.996 ± 0.031

TATCCCCCGG
switch fluorescence ratio: 1.95 ± 1.2
